Literature values as cited in PMC2908543, “Uropathogenic Escherichia coli Modulates Immune Responses and Its Curli Fimbriae Interact with the Antimicrobial Peptide LL-37” (PLoS Pathogens, 2010).

System: Pseudomonas aeruginosa
Conditions: ref [47]
Text: Biofilm inhibition by antimicrobial polypeptides has previously been described for Pseudomonas aeruginosa. […] A direct interaction with biofilm components was not investigated in these studies. The effect was rather related to an influence of LL-37 on the bacterial gene expression profile or an influence of lactoferrin on free iron. These and our findings stress an important anti-biofilm role of antimicrobial polypeptides in host defense. It is likely that the anti-biofilm activit ...

B1: lactoferrin (protein, UniProt P02788 20-710, looked up)
Lactotransferrin: GRRRSVQWCAVSQPEATKCFQWQRNMRKVRGPPVSCIKRDSPIQCIQAIAENRADAVTLDGGFIYEAGLAPYKLRPVAAEVYGTERQPRTHYYAVAVVKKGGSFQLNELQGLKSCHTGLRRTAGWNVPIGTLRPFLNWTGPPEPIEAAVARFFSASCVPGADKGQFPNLCRLCAGTGENKCAFSSQEPYFSYSGAFKCLRDGAGDVAFIRESTVFEDLSDEAERDEYELLCPDNTRKPVDKFKDCHLARVPSHAVVARSVNGKEDAIWNLLRQAQEKFGKDKSPKFQLFGSPSGQKDLLFKDSAIGFSRVPPRIDSGLYLGSGYFTAIQNLRKSEEEVAARRARVVWCAVGEQELRKCNQWSGLSEGSVTCSSASTTEDCIALVLKGEADAMSLDGGYVYTAGKCGLVPVLAENYKSQQSSDPDPNCVDRPVEGYLAVAVVRRSDTSLTWNSVKGKKSCHTAVDRTAGWNIPMGLLFNQTGSCKFDEYFSQSCAPGSDPRSNLCALCIGDEQGENKCVPNSNERYYGYTGAFRCLAENAGDVAFVKDVTVLQNTDGNNNEAWAKDLKLADFALLCLDGKRKPVTEARSCHLAMAPNHAVVSRMDKVERLKQVLLHQQAKFGRNGSDCPDKFCLFQSETKNLLFNDNTECLARLHGKTTYEKYLGPQYVAGITNLKKCSTSPLLEACEFLRK
notes: antimicrobial polypeptide
bacterial surface motility mediated by type IV pili: increased bacterial surface motility
